Laboratory results taken from publication PMC7072329 (Biomolecules, 2020).
Where no end group is shown, it is not given here. [ ]: non-standard residue; d: D form. The star is where a group is joined. Kyn = Nc1ccccc1C(=O)C[C@H](N)C(=O)O; NMeF = CN[C@@H](Cc1ccccc1)C(=O)O; NHCH2CH2OH = OCCN*

What was measured:
μ-opioid receptor [1] = molecular target: T1, μ-opioid receptor (rat (endogenous in rat brain), UniProt P33535 1-398); assay: cell-based or functional assay
δ-opioid receptor = molecular target: T2, δ-opioid receptor (rat (endogenous in rat brain), UniProt P33533 1-372); assay: radioligand binding; conditions: one partner purified
T2 construct: δ-opioid receptor, rat (Wistar), endogenous in brain membrane homogenate; defined by displacement of [^3H]Ile^5,6Delt II; In membranes, not on intact cells; also called DOR; source: endogenous, rat brain membrane homogenate

μ-opioid receptor [2] = molecular target: T1, μ-opioid receptor; assay: radioligand binding; displacement of [^3H]DAMGO from rat brain membrane homogenate by unlabelled ligand (10^-10 to 10^-5 M); 50 mM Tris-HCl pH 7.4, 35 °C, 45 min; non-specific binding with 10 μM naloxone; IC50 converted into Ki by Cheng-Prusoff, one site competition fit; conditions: one partner purified
μ-opioid receptor [3] = molecular target: T1, μ-opioid receptor; assay: cell-based or functional assay; remark: listed apart in the source
κ-opioid receptor = molecular target: T3, κ-opioid receptor (guinea pig (endogenous in guinea pig …, UniProt P41144 1-380)); assay: radioligand binding; displacement of [^3H]HS665 from guinea pig brain membrane homogenate by unlabelled ligand (10^-10 to 10^-5 M); 50 mM Tris-HCl pH 7.4, 25 °C, 30 min; non-specific binding with 10 μM HS665; IC50 converted into Ki by Cheng-Prusoff; conditions: one partner purified
T3 construct: κ-opioid receptor, guinea pig, endogenous in brain membrane homogenate; defined by displacement of [^3H]HS665; In membranes, not on intact cells; also called KOR; k-opioid receptor; source: endogenous, guinea pig brain membrane homogenate
T3 sequence (P41144 whole entry): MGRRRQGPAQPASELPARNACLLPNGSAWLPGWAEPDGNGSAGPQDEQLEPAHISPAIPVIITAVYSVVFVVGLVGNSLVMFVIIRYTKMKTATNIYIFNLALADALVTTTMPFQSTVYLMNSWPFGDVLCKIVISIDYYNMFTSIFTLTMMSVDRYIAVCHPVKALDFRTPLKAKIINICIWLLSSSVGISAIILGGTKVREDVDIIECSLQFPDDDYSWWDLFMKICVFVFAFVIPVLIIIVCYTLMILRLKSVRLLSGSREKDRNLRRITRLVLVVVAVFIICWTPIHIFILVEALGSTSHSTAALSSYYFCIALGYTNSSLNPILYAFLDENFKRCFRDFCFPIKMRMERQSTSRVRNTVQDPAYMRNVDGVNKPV

T2 sequence (P33533 whole entry, stated change not applied): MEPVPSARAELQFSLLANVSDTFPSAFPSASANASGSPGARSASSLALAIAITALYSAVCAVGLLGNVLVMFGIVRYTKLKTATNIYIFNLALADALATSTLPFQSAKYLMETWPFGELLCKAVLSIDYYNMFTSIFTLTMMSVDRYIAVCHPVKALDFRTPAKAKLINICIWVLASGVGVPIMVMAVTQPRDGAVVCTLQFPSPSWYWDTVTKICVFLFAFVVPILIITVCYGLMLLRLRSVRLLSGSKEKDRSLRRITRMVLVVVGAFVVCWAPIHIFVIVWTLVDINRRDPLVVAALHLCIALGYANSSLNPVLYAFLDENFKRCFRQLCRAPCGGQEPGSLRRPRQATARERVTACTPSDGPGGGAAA
T1 sequence (P33535 whole entry): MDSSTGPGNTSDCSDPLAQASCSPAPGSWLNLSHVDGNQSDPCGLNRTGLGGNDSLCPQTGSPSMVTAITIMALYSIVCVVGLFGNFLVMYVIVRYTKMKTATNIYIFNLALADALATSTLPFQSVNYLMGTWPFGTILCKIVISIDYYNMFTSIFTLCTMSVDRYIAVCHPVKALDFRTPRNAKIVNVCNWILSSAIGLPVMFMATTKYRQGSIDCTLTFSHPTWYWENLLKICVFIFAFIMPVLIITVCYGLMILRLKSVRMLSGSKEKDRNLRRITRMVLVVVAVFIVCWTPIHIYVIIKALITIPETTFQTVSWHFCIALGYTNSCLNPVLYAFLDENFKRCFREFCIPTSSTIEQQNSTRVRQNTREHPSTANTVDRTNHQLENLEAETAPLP

Binder: Y[dA]GF[Kyn]-NH2 [Peptide K6]
- logEC50 of [^35S]GTPγS binding as told in the conclusions (differs from Table 2) (μ-opioid receptor [1]): -5.6
- Ki (δ-opioid receptor): 0.0325 µM
- Ki (μ-opioid receptor [2]): 0.00184 µM
- Log EC50 of [^35S]GTPγS binding (G-protein activation), rat brain membrane homogenates (μ-opioid receptor [3]): -5.98
- Ki (κ-opioid receptor): 0.128 µM

B1: Peptide K3 (peptide)
chain: YPF[Kyn]-NH2
modifications: N-terminus assumed
SMILES: NC(=O)[C@H](CC(=O)c1ccccc1N)NC(=O)[C@H](Cc1ccccc1)NC(=O)[C@@H]1CCCN1C(=O)[C@@H](N)Cc1ccc(O)cc1
- Ki (δ-opioid receptor): 0.159 µM
- Ki (μ-opioid receptor [2]): 0.197 µM
- Ki (κ-opioid receptor): > 10 µM

Binder: Y[dA]GF[Kyn]-OH [Peptide K5]
- Ki (δ-opioid receptor): 0.0944 µM
- Ki (μ-opioid receptor [2]): 0.00911 µM
- Ki (κ-opioid receptor): > 10 µM

Binder: Y[dA]GF[Kyn]-OMe [Peptide K4]
- Ki (δ-opioid receptor): 0.0312 µM
- Ki (μ-opioid receptor [2]): 0.00229 µM
- Ki (κ-opioid receptor): > 10 µM

Binder: YP[Kyn]F-NH2 [Peptide K2]
- Ki (μ-opioid receptor [2]): 0.00139 µM

B2: Peptide KA1 (peptide)
peptide: Y[dA]G[NMeF][NHCH2CH2OH]-{kynurenic acid (ester on OH)}
notes: the order of couplings in Scheme 1 (ethanolamine-kyna ester, Boc-N-Me-Phe, Boc-Gly, Boc-DAla, Boc-Tyr) agrees; the drawn structure is in Scheme 1; also called kyna-containing peptide; source: synthetic peptide (solution phase synthesis, RP-HPLC purified, TFA salt)
- Ki (δ-opioid receptor): 0.555 µM
- Ki (κ-opioid receptor): > 10 µM
